Measurements published in a protein production outcome set (Wang et al. 2014).

Assay: label from the status in PepcDB records

| Sequence | protein production |
| --- | --- |
| MIKISVIIPIYNAENYIEKAFSSLKNQTLAQNEFEILCIDDKSTDNSLGKLKQLSKIHKNMRIINLHKNSGGPMIPRNKGIKEAKGKYIIFLDNDDYLGEEALERLFIQAEKNQSEVIFGKYVGINGRGVPQSQFKKGNRNEADILADNLVYTLAPHKMFQTAFLKTKKIYFDPNILIGEDQYFVMKAYVNAKVITVLADYDYYYVVSRGDENLSIKESKMDPREICKVVPAVVKEIEASPLHPTYKKTLIRAYIQRYFNDYITGNYNLDYKNMSERQKTFVQVMKDTIVCHLDEKMKNELPTKTRFMIDIIAENNPEKLIDVRMQMENFSKNQVVKVENGYIKGRFRKMRPQLAYDDVYDINHLNSSKVQLHSVTLQNNNYLLDISLEQSLLTRFQTALRLCLKERDGNLEIWISPLKMLSTERGIYAVDSTLFNHTCIWDLFIESEINGFKNRKRVGKDRDFEEIVSSNNTPLLIQNNSYQIKAYFTTPFSNLSFQIISE | failed |
| MIKKIFALPVIEQISPVLSRRKLDELDLIVVDHPQVKASFALQGAHLLSWKPAGEEEVLWLSNNTPFKNGVAIRGGVPVCWPWFGPAAQQGLPAHGFARNLPWTLKSHHEDADGVALTFELTQSEETKKFWPHDFTLLAHFRVGKTCEIDLESHGEFETTSALHTYFNVGDIAKVSVSGLGDRFIDKVNDAKENVLTDGIQTFPDRTDRVYLNPQDCSVINDEALNRIIAVGHQHHLNVVGWNPGPALSISMGDMPDDGYKTFVCVETAYASETQKVTKEKPAHLAQSIRVAKR | not failed |
| MIKKTIGGIIPIFTAVFIPASAGAADLMLAQEYKGQDIAGWAMSEKLDGVRAYWDGKHLMSRQGYAFAPPKGFTAQFPPYPLDGELYSGRGQFEQISATVRSVSSDWRGIRLHVFDVPKAQGNLYQRLAVATQWLKTHPNAPITIIPQIKVRDRQHAMDFLKQIEAQGGEGVMLRQPESRYSGGRSSQLLKLKSQYDDECTVTRHYEGKGRNAGRLGAVGCKNRHGEFRIGSGFKDKDRDNPPKIGTLITYRYRGFTRKGTPKFATFVRVRTDR | failed |
| MIKLIKNEIIKMLFKKKVILIMAIILIEACAFAYGQNNKYQRTVRSYVNSNSSSYNWRPLINQQIQDLQSKLKYRTVKKSEEKSINIQMEQYRYYLKNNINPITPTAGNFTSNIMAQSVTLLLPLLVIILASDIVSSEFSSRTIKVLLTRAVPRWKILLSKYIALIIMSAFVVFLTTIIPLIVSLVVFKRTGFGEPVITGYKVIAGKVDASNVVGIYQWYYILIMSALSFFISIVVGSISFMISIFVKSIGASIGIMMSALIGGNILSVFLDDIEAAKYFFVVNLNLPQYLTGKMRIVSGMNFDFSIMVLLIWSMASIVISFYVFNKKDVLV | failed |
| MIKLPVLLADINIQSLPTEPELILNNLAITTLVENLIILLLVATLVALVARWLKIPYVIGLVLAGLAIPRGLSVGLNPELILNFFLPILIFEAAINTDISRLRSTIKPITVLAGPGVVISAAITAVLLKIGLGLAWVTAAGVSVILTITDTVSVIAAFRSVPVPRRLATIVEGESMLNDGVAMVLLSVITTIHIQGGFSAGEGIRQIFVAFVGGGLVGLGLGYLCVGLFRQLNDDLSDILLTVSVSLGTFQIGQMLGVSSAIAVVVAGLVIGNLALKQTSASIKVTLLSFWEYAGFGVNTLIFLLVGIEVYPSILLSTIPAALIAIVAYQIGRVFSIYPLLYLLSFFDRPLPLRWQHVLIAGNVKGSLSMALALALPLTLPGRDQVVTLVFSTVMVSLIGQGLSLPWVVKKLQLSKPSPLAQKIAMLQLNLVTAKAAQGELKYLLEAGSLPKFLYEELFADYQARIANSEQELREFYNQRNLIFSEGEVEKKYIDGLYRRLYIAEKSAINDALAKGILADDISDEYLQVLNEKLLALQDD | failed |
| MIKLYSPYAFLSKYLGAILLSFFCYYAKEIGCNNLTLSVWNDNEGALRFYQRQGMKPQETTMEMIID | failed |
| MIKPELPSNEAERLAALRQYDVLDSPAERAFDDLTMIASTLCETQMAAVVLVDEDRQWFKSAHGAPRSEAPRDISFCAHAILRPDEVLMVDDTLLDPRFHDNPMVVGSGGVRFYAGAPLVTSQGMALGSLCVFDQAPAHLREDQREALQALSRQASQLLELRLAGRQLRQQLHEREWYEQQMAGYYAQMDALHADLVEQTRTDPLTGLPNRRAFAVALAAATEQTRAVGQPLSVALLDVDHFKTVNDVHGHDQGDAVLRELSTLLRAHMAGAGTIARYGGEEFVLLLPNANLLQARVQCEYLRQSVAAMTIALPVTVSIGVATLYPQESVEAVIKRADQALYAAKRGGRDQVVALE | failed |
| MIKSIKKNLKPKILISNLILIIGIVIFVTLYGAVFGSANSLVGVCAITAMLMFVDVHLSLKLNEAIITTVLSFVLMGVSSQIASINPFLGFVVNFISIFVVSYLVTNAMETKAYLPFILCYVFIEGTPITWSELPRRLIALFVGGALIALVYYFSHRKKDDSDHMNISEMIKTMNKNTLQFNFSLRMALAVSIAMLLGSILGFQKSMWISITAMSITQPHFDDTKTRVKERFFGTLIGSAIFVLIFVYIVPQQFSSIVLLILSYIYTFIKEYKIKMIFITMSSLGAAMILFQPGVSVPMRIAFIVMGIGIALVVNKVIYGRLKLEESNEELDETIKDIDKVNDEF | failed |
| MIKTEKNQTSKVTDEVDQLVQRSKKALAILKSYTQAQIDDLCEKVAVAALDNHMKLAKLAVEETGRGVVEDKAIKNIYASEYIWNSMRHDKTVGVIKEDDEEQLMEIAEPVGIVAGVTPVTNPTSTTVFKTLISLKGRNTIVFGFHPQAQKCSSAAADVMREAIKAAGGPADAVLYIEHPSIEATDALMHHTDVATILATGGPSMVTAAYSSGKPALGVGPGNGPTYVEKTADIKQAVNDIVLSKTFDNGMICASE | failed |
| MIKVKSPGRVNLIGEHTDYTYGYVMPMAINLYTKIEAEKHGEVILYSEHFGEERKFSLNDLRKENSWIDYVKGIFWVLKESDYEVGGIKGRVSGNLPLGAGLSSSASFEVGILETLDKLYNLKLDSLSKVLLAKKAENEFVGVPCGILDQFAVVFGREGNVIFLDTHTLDYEYIPFPKDVSILVFYTGVRRELASSEYAERKHIAEESLKILGKGSSKEVREGELSKLPPLHRKFFGYIVRENARVLEVRDALKEGNVEEVGKILTTAHWDLAKNYEVSCKELDFFVERALKLGAYGARLTGAGFGGSAIALVDKEDAETIGEEILREYLKRFPWKARHFIVEPSDGVGI | not failed |
| MILLSFNILVLYQNVQISLSSGICFRLYSEVLSYILIYVAVWLTLYGIDLLNTVYGASDSRSVSKSAVSKRTLAVLPCSSCRINKRCIENGHLQSATNKTSFVC | failed |
| MILPEYNETDFMQAVINAAPTPIFYKDAQGRYLGCNKAFEEYIGLNREQLIGKSVLELFDDELARTYFEADNALFERKGTQIYEAKVEYADGTTHDVMFHKAYFHAEGIEGIVGSILDITERKKAEKSLEQLALSDSLTGLDNRYSLMKSLKHSLLRQHRENFTLAFLMLDLDGFKQINDNYGHPVGDALLIEVANKLKNHFRESDVIARVGGDEFSVILENIHSTESLIVLANNILAEFLKPFVIDNNKFTIGISIGIATSSFSECSSEDIIKHADAALYQVKNSGKGSYHLTVVN | failed |
| MILPPIPTPFDREGRLDEEAFRELAQALEPLVDGLLVYGSNGEGVHLTPEERARGLRALRPRKPFLVGLMEETLPQAEGALLEAKAAGAMALLATPPRYYHGSLGAGLLRYYEALAEKMPLFLYHVPQNTKVDLPLEAVEALAPHPNVLGIKDSSGDLSRIAFYQARLQEFRVYTGHAPTFLGALALGAEGGILAAANLAPRAYRALLDHFREGRLAEAQELQKKLFPLGDLLAKGGVPLLKQALRHLGLPAGYPRPPYPAESPLWERFLPVLEGLKEEGWVL | not failed |
| MILPTKAMATQELTVKRKLSGNTLQVQASSPVALGVRIPTVALHMMELFDTTVEQLYSIFTVKELTNKKIIMKWRCGNWPEEHYAMVALNFVPTLGQTELQLKEFLSICKEENMKFCWQKQHFEEIKGSLQLTPLNG | failed |
